Laboratory results taken from patent US20240254227A1 (Alector, published 2024).

Assays:
Test in all cases: SPR (Carterra LSA), antibody immobilised
human CD300C-Fc = target: T1, human CD300C-Fc (human)
T1 construct: hIgG1-Fc fusion; the entry is the whole fusion chain
T1 chain: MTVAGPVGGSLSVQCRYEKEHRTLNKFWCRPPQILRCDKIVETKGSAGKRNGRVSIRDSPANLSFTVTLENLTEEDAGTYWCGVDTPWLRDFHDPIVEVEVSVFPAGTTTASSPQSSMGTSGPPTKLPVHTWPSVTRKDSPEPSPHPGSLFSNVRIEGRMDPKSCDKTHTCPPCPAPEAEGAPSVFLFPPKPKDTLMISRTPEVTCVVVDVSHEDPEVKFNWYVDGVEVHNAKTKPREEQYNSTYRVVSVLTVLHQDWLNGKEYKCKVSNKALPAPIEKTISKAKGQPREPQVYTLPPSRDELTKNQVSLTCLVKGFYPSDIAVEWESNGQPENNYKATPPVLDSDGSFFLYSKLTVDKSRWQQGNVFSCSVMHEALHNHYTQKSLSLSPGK
From the text: (§1) In addition to the screening of antibodies for cross-reactivity by FACS analysis, surface plasmon resonance (SPR) analysis was used to determine the binding of antibodies to recombinant huCD300 and muCD300 family members (orthologs) conjugated to an Fc (human CD300A-Fc SEQ ID NO:144; human CD300LB-Fc SEQ ID NO:145; human CD300C-Fc SEQ ID NO: 146; human CD300D-Fc SEQ ID NO: 147; human CD300E-Fc SEQ ID NO: 148; human CD300F-Fc SEQ ID NO: 149; murine CD300A-Fc SEQ ID NO: 150; murine CD300LB-Fc SEQ ID NO:151; murine CD300C-Fc SEQ ID NO: 152; murine CD300D-Fc SEQ ID NO: 153, and murine CD300E-Fc SEQ ID NO: 154).
(§2) Binding of mouse anti-CD300LB IgG1 antibodies of the present disclosure to human and murine CD300 orthologs were evaluated by surface plasmon resonance (SPR) using a Carterra LSA instrument (Carterra, Salt Lake City, UT). […] A HC200M sensor chip (Carterra) was activated using the single channel flow cell with a 7-minute injection of a 1:1:1 mixture of 100 mM MES pH 5.5, 100 mM sulfo-NHS, 400 mM EDC (all reconstituted in MES pH 5.5; 100 μL of each mixed in vial immediately before running assay). After switching to the multi-channel array flow cell, the antibodies were injected over the activated chip in a 96-spot array for 10 minutes. The remaining unconjugated active groups on the chip were then blocked by injecting 1M Ethanolamine pH 8.5 (Carterra) for 7 minutes using the single channel flow cell. After priming with running buffer (HBS-TE, Carterra) with 0.5 mg/ml BSA (Sigma), the immobilized anti-CD300LB antibodies were tested for their ability to bind human and mouse recombinant CD300LB extracellular domains. Human CD300 family members and mouse CD300A were hIgG1-Fc fusions, while mouse CD300LB, mouse CD300C, mouse CD300D, and mouse CD300E were mouse IgG2a-Fc fusions (R&D Systems). Binding was assessed by injecting each analyte over the entire antibody array using the single channel flow cell. CD300 analytes were diluted to 300 nM or 600 nM in running buffer and injected in series without regeneration. Two or three buffer blanks were run between each mouse or human ortholog, respectively. Data were processed and analyzed using NextGenKIT high-throughput kinetics analysis software (Carterra).

human CD300F-Fc = target: T2, human CD300F-Fc (human)
T2 construct: hIgG1-Fc fusion; the entry is the whole fusion chain
T2 chain: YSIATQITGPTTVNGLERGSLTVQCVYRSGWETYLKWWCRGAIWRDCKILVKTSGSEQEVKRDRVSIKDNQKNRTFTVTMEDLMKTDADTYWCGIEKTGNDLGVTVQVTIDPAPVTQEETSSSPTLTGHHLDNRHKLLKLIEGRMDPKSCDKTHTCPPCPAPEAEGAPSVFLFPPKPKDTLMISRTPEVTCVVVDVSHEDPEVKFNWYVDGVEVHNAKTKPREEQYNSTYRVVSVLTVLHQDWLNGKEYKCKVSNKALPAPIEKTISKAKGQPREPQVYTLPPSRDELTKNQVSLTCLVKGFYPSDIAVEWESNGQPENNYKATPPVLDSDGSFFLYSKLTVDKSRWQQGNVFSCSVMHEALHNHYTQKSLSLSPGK
From the text: as §1, §2

human CD300A-Fc = target: T3, human CD300A-Fc (human)
T3 construct: hIgG1-Fc fusion; the entry is the whole fusion chain
T3 chain: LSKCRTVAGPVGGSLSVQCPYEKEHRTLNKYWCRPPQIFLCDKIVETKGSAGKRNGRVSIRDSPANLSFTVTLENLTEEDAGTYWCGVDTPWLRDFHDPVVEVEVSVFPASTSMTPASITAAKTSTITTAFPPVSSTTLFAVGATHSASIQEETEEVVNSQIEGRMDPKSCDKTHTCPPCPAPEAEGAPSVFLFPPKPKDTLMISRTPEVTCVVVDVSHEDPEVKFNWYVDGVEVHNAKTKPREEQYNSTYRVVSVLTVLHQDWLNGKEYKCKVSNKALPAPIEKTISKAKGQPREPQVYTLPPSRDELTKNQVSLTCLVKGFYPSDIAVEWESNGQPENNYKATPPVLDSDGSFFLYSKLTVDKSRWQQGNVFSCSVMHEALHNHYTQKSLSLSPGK
From the text: as §1, §2

human CD300D-Fc = target: T4, human CD300D-Fc (human)
T4 construct: hIgG1-Fc fusion; the entry is the whole fusion chain
T4 chain: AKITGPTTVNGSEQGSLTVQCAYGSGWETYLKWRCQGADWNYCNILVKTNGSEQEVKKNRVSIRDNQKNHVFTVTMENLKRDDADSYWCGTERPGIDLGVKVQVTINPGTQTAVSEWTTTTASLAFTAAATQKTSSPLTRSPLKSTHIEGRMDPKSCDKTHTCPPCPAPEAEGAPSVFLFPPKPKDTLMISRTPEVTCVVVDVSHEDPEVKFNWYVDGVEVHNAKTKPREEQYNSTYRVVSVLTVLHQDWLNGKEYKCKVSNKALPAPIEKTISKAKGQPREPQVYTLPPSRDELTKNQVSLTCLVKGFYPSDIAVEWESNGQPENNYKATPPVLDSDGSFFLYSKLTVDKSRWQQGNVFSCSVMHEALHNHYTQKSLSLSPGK
From the text: as §1, §2

Measured: binding result

B1: anti-CD300LB antibody CD-05 (antibody, V domains shown)
VH: QVQLVQSGAEVKKPGASVKVSCKASGYTFSRYYINWVRQAPGQGLEWMGWINPNSGGTNYAQKFQGRVTMTRDTSTSTVYMELSSLRSEDTAVYYCTTDQLRFGKTGPYYGMDVWGQGTTVTVSS
VL: DIQMTQSPSSLSASVGDRVTITCRASQNIGTYLNWYQQKPGKAPKLLIYAASSLQSGVPSRFSGSGSGTDFTLTISSLQPEDFATYYCQQSYSDTLTFGGGTKVEIK
no binding (tested: 300 nM or 600 nM): human CD300C-Fc | human CD300F-Fc | human CD300A-Fc | human CD300D-Fc

B2: anti-CD300LB antibody CD-01 (antibody, V domains shown)
VH: RVQLQQSGAELVRPGASVTLSCKASGFTFTDFEMHWVKKTPVHGLEWIGAIDPESGNTAYNQKFRGKATLTADKSSSTAYMELRYLTSEDSAVYYCTPLISGADYWGQGTTLTVSS
VL: DVVMTQSPLSLPVSLGDQASISCRSSQSLVHSDGNTYLYWYLQKPGQSPKLLIYKVSNRFSGVPDRFSGSGSGTDFTFKISRVGAEDLGVYFCSQSTHVPWTFGGGTKLEII
no binding (tested: 300 nM or 600 nM): human CD300C-Fc | human CD300F-Fc | human CD300A-Fc | human CD300D-Fc

B3: anti-CD300LB antibody CD-02 (antibody, V domains shown)
VH: QVQLQQPGAELVRPGSSVKLSCQASGYTFTNYWMHWVRQRPIQGLEWIGNIDPSDSETHYNQKFKDRATLTVDKSSSTAYMQLSSLTSEDSAVYYCARSGVYDDEGGDYWGQGTTLTVSS
VL: ENVLTQSPAIMSASPGEKVTMTCSASSSVSYIHWYQQKSSTSPKLWIYDTSKLASGVPGRFSGSGSGNSYSLTISSMETEDVATYYCFQGSGYPLTFGAGTKLELK
no binding (tested: 300 nM or 600 nM): human CD300C-Fc | human CD300F-Fc | human CD300A-Fc | human CD300D-Fc

B4: anti-CD300LB antibody CD-03 (antibody, V domains shown)
VH: EVQLQQSGPELVKPGASVKISCKASGYTFTDYYINWVRQSHGKSLECIGDINPNNGGTNYNQKFKGKATLTVDRSSNTAYMEFRSLTFDDSALYYCAAEGAYWGQGTLVTVSA
VL: not shown
no binding (tested: 300 nM or 600 nM): human CD300C-Fc | human CD300F-Fc | human CD300A-Fc | human CD300D-Fc
